From patent US20190345557

Target: Human RhoG (residues 1-188) with N-terminal His-SUMO tag, pre-loaded with GDP, P84095
Sequence (P84095 1-188): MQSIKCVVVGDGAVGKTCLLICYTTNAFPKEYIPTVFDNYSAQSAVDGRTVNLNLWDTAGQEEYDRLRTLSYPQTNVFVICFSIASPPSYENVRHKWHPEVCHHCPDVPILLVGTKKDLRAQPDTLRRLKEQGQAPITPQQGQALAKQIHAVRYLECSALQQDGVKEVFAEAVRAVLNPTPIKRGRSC

Protein | nucleotide exchange activity (GTP-GDP nucleotide exchange assay, MANT-GTP fluorescence, 60 minutes)
Human full-length ARHGEF26 (wild-type) with N-terminal His-SUMO tag (protein) MDGESEVDFSSNSITPLWRRRSIPQPHQVLGRSKPRPQSYQSPNGLLITDFPVEDGGTLLAAQIPAQVPTASDSRTVHRSPLLLGAQRRAVANGGTASPEYRAASPRLRRPKSPKLPKAVPGGSPKSPANGAVTLPAPPPPPVLRPPRTPNAPAPCTPEEDLTGLTASPVPSPTANGLAANNDSPGSGSQSGRKAKDPERGLFPGPQKSSSEQKLPLQRLPSQENELLENPSVVLSTNSPAALKVGKQQIIPKSLASEIKISKSNNQNVEPHKRLLKVRSMVEGLGGPLGHAGEESEVDNDVDSPGSLRRGLRSTSYRRAVVSGFDFDSPTSSKKKNRMSQPVLKVVMEDKEKFSSLGRIKKKMLKGQGTFDGEENAVLYQNYKEKALDIDSDEESEPKEQKSDEKIVIHHKPLRSTWSQLSAVKRKGLSQTVSQEERKRQEAIFEVISSEHSYLLSLEILIRMFKNSKELSDTMTKTERHHLFSNITDVCEASKKFFIELEARHQNNIFIDDISDIVEKHTASTFDPYVKYCTNEVYQQRTLQKLLATNPSFKEVLSRIESHEDCRNLPMISFLILPMQRVTRLPLLMDTICQKTPKDSPKYEVCKRALKEVSKLVRLCNEGARKMERTEMMYTINSQLEFKIKPFPLVSSSRWLVKRGELTAYVEDTVLFSRRTSKQQVYFFLFNDVLIITKKKSEESYNVNDYSLRDQLLVESCDNEELNSSPGKNSSTMLYSRQSSASHLFTLTVLSNHANEKVEMLLGAETQSERARWITALGHSSGKPPADRTSLTQVEIVRSFTAKQPDELSLQVADVVLIYQRVSDGWYEGERLRDGERGWFPMECAKEITCQATIDKNVERMGRLLGLETNV | we observed no significant difference in nucleotide exchange activity between wild-type and 29Leu mutant ARHGEF26
Human full-length ARHGEF26 29Leu mutant (p.Val29Leu) with N-terminal His-SUMO tag (protein) MDGESEVDFSSNSITPLWRRRSIPQPHQLLGRSKPRPQSYQSPNGLLITDFPVEDGGTLLAAQIPAQVPTASDSRTVHRSPLLLGAQRRAVANGGTASPEYRAASPRLRRPKSPKLPKAVPGGSPKSPANGAVTLPAPPPPPVLRPPRTPNAPAPCTPEEDLTGLTASPVPSPTANGLAANNDSPGSGSQSGRKAKDPERGLFPGPQKSSSEQKLPLQRLPSQENELLENPSVVLSTNSPAALKVGKQQIIPKSLASEIKISKSNNQNVEPHKRLLKVRSMVEGLGGPLGHAGEESEVDNDVDSPGSLRRGLRSTSYRRAVVSGFDFDSPTSSKKKNRMSQPVLKVVMEDKEKFSSLGRIKKKMLKGQGTFDGEENAVLYQNYKEKALDIDSDEESEPKEQKSDEKIVIHHKPLRSTWSQLSAVKRKGLSQTVSQEERKRQEAIFEVISSEHSYLLSLEILIRMFKNSKELSDTMTKTERHHLFSNITDVCEASKKFFIELEARHQNNIFIDDISDIVEKHTASTFDPYVKYCTNEVYQQRTLQKLLATNPSFKEVLSRIESHEDCRNLPMISFLILPMQRVTRLPLLMDTICQKTPKDSPKYEVCKRALKEVSKLVRLCNEGARKMERTEMMYTINSQLEFKIKPFPLVSSSRWLVKRGELTAYVEDTVLFSRRTSKQQVYFFLFNDVLIITKKKSEESYNVNDYSLRDQLLVESCDNEELNSSPGKNSSTMLYSRQSSASHLFTLTVLSNHANEKVEMLLGAETQSERARWITALGHSSGKPPADRTSLTQVEIVRSFTAKQPDELSLQVADVVLIYQRVSDGWYEGERLRDGERGWFPMECAKEITCQATIDKNVERMGRLLGLETNV | we observed no significant difference in nucleotide exchange activity between wild-type and 29Leu mutant ARHGEF26
